The values that follow come from PMC6312923 (Life Science Alliance, 2018).

Type in all cases: cell-based, human
In one test the test system is Cdt1 poly-ubiquitination. Briefly: Poly-ubiquitination of Cdt1 in HEK293 cells. Particulars: for poly-ubiquitinated Cdt1 level: HEK293, MG132 3 h, asynchronous; for poly-ubiquitination of Cdt1 after UV: HEK293, endogenous Cdt2 depleted (siCdt2), MG132 25 μM, UV 20 J/m^2. The method, then: (§1) Figure 6. The Cdt2 PIP box is important for its recruitment to DNA damage sites and replication foci and for poly-ubiquitination activity. (A) HEK293 and stable Cdt2^WT or Cdt2^PIP-3A cells were locally UV irradiated, and stained for XPA and FLAG (Cdt2). XPA-positive spots were examined for FLAG signal, and its frequency was counted (%). More than 50 spots were examined. bar:10 μm. […] Bar: 10 μm. […] (D) Whole-cell extracts were prepared from HEK293 and stably transfected cells of Cdt2^WT or Cdt2^PIP-3A cells, separated into soluble (Sup) and chromatin-containing insoluble (Ppt) fractions, and were examined for indicated proteins. The asterisk indicates nonspecific bands. (E) HEK293 and stably transfected cells of Cdt2^WT or Cdt2^PIP-3A were treated with MG132 for 3 h. Whole-cell extracts (WCE) were prepared, separated into soluble (Sup) and insoluble (Ppt) fractions, and blotted with the indicated antibodies.
Figure S6. Cdt2 PIP box is important for its recruiting to DNA replication sites and its poly-ubiquitination activity in HEK293 cells. […] (B) Poly-ubiquitination after UV irradiation. HEK293 and its stables expressing Cdt2^WT or Cdt2^PIP-3A were transfected with siCdt2 or control (siLuc). Three days later, cells were treated with MG132 (25 μM), and 10 min later irradiated with UV (20 J/m^2). Cells were collected at the indicated time points, and used for Western blotting with indicated antibodies.
To consider this possibility, asynchronously growing control HEK293 cells and cells expressing Cdt2^WT or Cdt2^PIP-3A were treated with proteasome inhibitor MG132 and the levels of poly-ubiquitinated Cdt1 were examined. […] Cdt2^PIP-3A-expressing cells however had reduced level of both poly-ubiquitinated Cdt1 and p21 on chromatin.
Next, we examined the accumulation of poly-ubiquitinated Cdt1 after UV irradiation. For this experiment, the endogenous Cdt2 was depleted with an siRNA targeted to the 3′ UTR to assay for the activity of introduced Cdt2. Cells were treated with MG132, irradiated with UV and the levels of poly-ubiquitinated Cdt1 were monitored by Western blotting. In HEK293 cells treated with control siRNA, poly-ubiquitinated Cdt1 was detected 15 min after irradiation (Fig S6B). […] The defect was rescued by Cdt2^WT expression.

Test [1] has as its system Cdt1 degradation, U2OS cells. In words: Cdt1 degradation after UV irradiation in U2OS cells. Conditions: for Cdt1 degradation after UV: siCdt2 (3′ UTR), UV 20 J/m^2. An excerpt: Because the poly-ubiquitination activity of Cdt2^PIP-3A was reduced, we monitored the degradation of Cdt1 after UV irradiation. Asynchronously growing control U2OS cells and cells expressing Cdt2^WT or Cdt2^PIP-3A (Fig S7) were depleted of endogenous Cdt2 using an siRNA targeted to the 3′ UTR, and irradiated with UV.
Figure 7. The Cdt2 PIP box plays an important role for rapid Cdt1 degradation after UV irradiation. (A) U2OS cells and U2OS cells stably expressing Cdt2^WT-3FLAG or Cdt2^PIP-3A-3FLAG were transfected with siCdt2 targeted to the 3′ UTR or control siLuc for 48 h, irradiated with UV (+, 20 J/m^2) or not (−), and collected at the indicated time points (min) for Western blotting. (B) The protein levels were measured and the relative amounts of Cdt1, normalized to RCC1, after UV irradiation were shown, UV (−) level set as 1.0. Error bars represent SD from three independent experiments. (C) Cells were transfected with siCdt2 or control siLuc for 72 h, irradiated with UV (+, 5 J/m^2) or not (−) (not shown), and 1h later fixed for staining with Cdt1 and cyclinA antibodies. (D) The frequency of Cdt1-positive (+) cells among the total cells in (C) was shown (%) (average of two independent experiments).
Double-stranded RNAs were transfected at 100 nM using Oligofectamine (Invitrogen) or HiPerFect (QIAGEN). Twenty-four hours after the first transfection, a second transfection was performed and cells were cultured for two more days. The following siRNAs were made by Dharmacon: Skp2; […], Cdt2_3′UTR; […]. The siRNA for siLuc, known as GL2, was used as a control siRNA. For Cdt1 silencing in Fig 1A and B, unsychronized HeLa cells were transfected twice with 200 nM of Cdt1 siRNA or control luciferase siRNA using Lipofectamine 2000 with a time interval of 24 h and were analysed 48 h after the second transfection. In synchronized MCF7 cells (Fig 1D), a single transfection with 200 nM of Cdt1 siRNA or control luciferase siRNA using Lipofectamine 2000 5 h after release from thymidine and before adding nocodazole was carried out. The Cdt1 siRNA was made by MWG: […].

Test [2] has as its system chromatin-containing fraction, HEK293 cells. In words: Chromatin fractionation of Cdt2. Particulars: stable HEK293, Western blot. The method, then:
as §1
Cell extracts were prepared using 0.1% Triton X-100–containing mCSK buffer (200 μg of total protein in 400–800 μl). After centrifugation (17,900g for 10 min at 4°C), soluble and chromatin-containing pellet fractions were obtained. The pellets were washed with ice-cold 0.1% Triton X-100–containing mCSK buffer and subsequently suspended in SDS sample buffer.

With “Cdt2: Cdt2 tagged with GFP, transiently expressed in MCF7 cells”, in the test on Cdt1 poly-ubiquitination, the “poly-ubiquitinated Cdt1 level” value is on record as “clearly detected” and the “poly-ubiquitination of Cdt1 after UV” value is recorded as “rescued”. In addition, in test [1], the “Cdt1 degradation after UV” value was “restored Cdt1 degradation to similar kinetics to that of control siRNA-transfected U2OS cells”. In test [2], the “recovery in chromatin-containing fraction” value is recorded as “recovered in a chromatin-containing fraction”.

B1: Cdt2^PIP-3A: Cdt2 with I709, Y712, and F713 all mutated to alanine (protein, UniProt Q9NZJ0 1-730, looked up, variant I709A Y712A F713A)
Denticleless protein homolog: MLFNSVLRQPQLGVLRNGWSSQYPLQSLLTGYQCSGNDEHTSYGETGVPVPPFGCTFSSAPNMEHVLAVANEEGFVRLYNTESQSFRKKCFKEWMAHWNAVFDLAWVPGELKLVTAAGDQTAKFWDVKAGELIGTCKGHQCSLKSVAFSKFEKAVFCTGGRDGNIMVWDTRCNKKDGFYRQVNQISGAHNTSDKQTPSKPKKKQNSKGLAPSVDFQQSVTVVLFQDENTLVSAGAVDGIIKVWDLRKNYTAYRQEPIASKSFLYPGSSTRKLGYSSLILDSTGSTLFANCTDDNIYMFNMTGLKTSPVAIFNGHQNSTFYVKSSLSPDDQFLVSGSSDEAAYIWKVSTPWQPPTVLLGHSQEVTSVCWCPSDFTKIATCSDDNTLKIWRLNRGLEEKPGGDKLSTVGWASQKKKESRPGLVTVTSSQSTPAKAPRAKCNPSNSSPSSAACAPSCAGDLPLPSNTPTFSIKTSPAKARSPINRRGSVSSVSPKPPSSFKMSIRNWVTRTPSSSPPITPPASETKIMSPRKALIPVSQKSSQAEACSESRNRVKRRLDSSCLESVKQKCVKSCNCVTELDGQVENLHLDLCCLAGNQEDLSKDSLGPTKSSKIEGAGTSISEPPSPISPYASESCGTLPLPLRPCGEGSEMVGKENSSPENKNWLLAMAAKRKAENPSPRSPSSQTPNSRRQSGKKLPSPVTITPSSMRKACTAAHRKSQEDFCGPEHSTEL
modifications: FLAG tag
notes: Cdt2 with I709, Y712, and F713 all mutated to alanine
As for B1, in the test on Cdt1 poly-ubiquitination, the “poly-ubiquitinated Cdt1 level” value is reported as “reduced” and the “poly-ubiquitination of Cdt1 after UV” value is listed as “defective in poly-ubiquitination of Cdt1”. Further, the “Cdt1 degradation after UV” value in test [1] is reported as “much less effective in rescuing Cdt2 depletion”. Besides, in test [1] (siCdt2, UV 5 J/m^2, 1 h post UV), the “Cdt1 stability after low-dose UV” value was “Cdt1 remained stable 1 h post UV irradiation”. Moreover, the “recovery in chromatin-containing fraction” value in test [2] is “undetectable”.
